Patent US20250042994A1 (HAINAN SIMCERE ZAIMING PHARMACEUTICAL, published 2025)
Numbering of substitutions follows the chain as printed. Each block holds one binder with its values, some of them ahead of it.

What was measured:
[1] = target: T1, human CD19 on CHO-K1-human CD19 cells (human, UniProt P15391 20-556); test: FACS on CHO-K1-human CD19 cells
T1 construct: whole, on cells; also called CHO-K1-human CD19-2C8
T1 sequence (looked up): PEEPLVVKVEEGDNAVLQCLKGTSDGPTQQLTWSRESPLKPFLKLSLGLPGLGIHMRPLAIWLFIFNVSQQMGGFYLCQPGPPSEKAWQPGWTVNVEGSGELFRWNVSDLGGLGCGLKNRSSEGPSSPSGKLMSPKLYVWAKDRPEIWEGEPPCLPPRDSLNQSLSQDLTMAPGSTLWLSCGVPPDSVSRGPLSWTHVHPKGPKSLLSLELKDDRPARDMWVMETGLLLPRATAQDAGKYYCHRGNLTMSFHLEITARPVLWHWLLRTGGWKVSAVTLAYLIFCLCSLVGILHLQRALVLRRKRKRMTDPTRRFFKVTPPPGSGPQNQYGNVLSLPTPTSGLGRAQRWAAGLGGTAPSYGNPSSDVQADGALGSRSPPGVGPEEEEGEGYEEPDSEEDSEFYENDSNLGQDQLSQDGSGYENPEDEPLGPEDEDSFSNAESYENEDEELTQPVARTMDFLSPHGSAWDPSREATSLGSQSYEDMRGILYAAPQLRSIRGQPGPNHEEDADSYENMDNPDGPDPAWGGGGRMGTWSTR
Excerpt: (§1) The desired cells were scale-up cultured in a T-75 cell culture flask to the logarithmic growth phase. For the adherent cell CHO-K1, the medium was aspirated, the cells were washed 2 times with a PBS buffer, and then digested with trypsin. After the digestion was terminated, the cells were washed 2 times with a PBS buffer; and for suspension cell Raji, the supernatant of the medium was discarded by directly centrifugation, and the cell pellet was washed 2 times with PBS. After counting the cells in the previous step, the cell pellet was resuspended with [PBS+2% (w/w) BSA] blocking solution to 2×10⁶ cells/ml, and added to a 96-well FACS reaction plate at 50 μl/well, and then the sample to be tested was added at 50 μl/well, and incubated on ice for 2 h. The obtained mixture was centrifuged and washed 3 times with a PBS buffer. […] The obtained mixture was centrifuged and washed 5 times with a PBS buffer, and FACS (FACS Canto™, purchased from BD Company) was used for detection and result analysis. Data analysis was performed by software (FlowJo) to obtain the mean fluorescence intensity (MFI) of the cells. And then software (GraphPad Prism8) was used for analysis, data fitting, and EC50 value calculation. […] The same method was used to detect the binding of the chimeric antibodies to endogenous CD19-negative cells, MoLT4 cells (purchased from ATCC, CRL-1582), and CHO-K1 cells.

[2] = target: T2, cynomolgus monkey CD19 on peripheral blood B cells (cynomolgus monkey (Macaca fascicularis), UniProt A0A2K5W8L9 20-557); test: FACS, cynomolgus PBMC, CD20+ B cells
T2 construct: whole, on cells; also called cynomolgus monkey B cells
T2 sequence: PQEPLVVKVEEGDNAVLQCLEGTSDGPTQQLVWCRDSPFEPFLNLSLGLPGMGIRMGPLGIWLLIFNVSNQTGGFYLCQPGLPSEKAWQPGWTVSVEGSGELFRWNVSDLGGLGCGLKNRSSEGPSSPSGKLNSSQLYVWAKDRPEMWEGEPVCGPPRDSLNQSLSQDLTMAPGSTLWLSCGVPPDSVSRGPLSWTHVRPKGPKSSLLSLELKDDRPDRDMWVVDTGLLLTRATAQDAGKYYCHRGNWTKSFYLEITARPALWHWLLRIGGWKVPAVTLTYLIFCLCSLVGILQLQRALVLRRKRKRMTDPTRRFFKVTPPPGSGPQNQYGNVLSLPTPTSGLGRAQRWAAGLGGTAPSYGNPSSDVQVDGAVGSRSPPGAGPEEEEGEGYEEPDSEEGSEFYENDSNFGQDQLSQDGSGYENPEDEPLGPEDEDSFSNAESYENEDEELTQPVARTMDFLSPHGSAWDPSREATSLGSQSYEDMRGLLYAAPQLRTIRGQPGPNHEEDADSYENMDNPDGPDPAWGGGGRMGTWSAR
Experimental: The monkey peripheral blood mononuclear cells were extracted from fresh cynomolgus monkey peripheral blood (purchased from Shanghai Medicilon Inc.) according to the instructions of Ficoll-Paque Plus (purchased from GE Healthcae, catalog number: 171440-02). After the cell suspension was centrifuged, the cells were resuspended in PBS containing 1% BSA, and then the cells were counted. […] The mixture was incubated for 1 h at room temperature. After washing the cells three times, APC-labeled secondary antibody anti-human IgG Fc (catalog number: 409306, purchased from Biolegend) was added. After incubation at room temperature in the dark for 30 minutes, the cells were washed 5 times, gently resuspended with PBS containing 1% BSA, and detected and analyzed by FACS (FACS Canto™, purchased from BD Company), in which CD20 was used as a marker of B cells to gate the CD20-positive B cell population, the proportion of the chimeric antibody-labeled positive cells was analyzed, and the proportion of the chimeric antibody positive cell population to B cell population was calculated after treatments with the chimeric antibodies at the concentrations of 100 nM, 10 nM and 1 nM, respectively.

[3] = target: T3, monkey CD19 on HEK293T-monkey CD19 cells (monkey); test: FACS on HEK293T-monkey CD19 cells
T3 construct: whole, on cells
Experimental: as §1, with “After” for “The desired cells were scale-up cultured in a T-75 cell culture flask to the logarithmic growth phase. For the adherent cell CHO-K1, the medium was aspirated, the cells were washed 2 times with a PBS buffer, and then digested with trypsin. After”
HEK293T-monkey CD19 cells were subjected to FACS detection and data analysis according to the method in example 5.2. […] The same method was used to detect binding of the chimeric antibodies to HEK293T cells.

human CD19 on Raji cells = target: T4, human CD19 on Raji cells (human, UniProt P15391 20-556); test: FACS on Raji cells
T4 construct: whole, on cells
T4 sequence (looked up): T1 sequence (looked up)
Excerpt: as §1

B3: F3.5.1 (antibody, human IgG1, V domains shown)
VH: QAQLQQSGPELVKPGASVKISCKASGYAFSGSWMNWVQQRPGKGLEWIGRIYPGDGDTYYNGKFKDKAILTADKSSSTAYMQLSSLTSEDSAVYFCAQLRYRYVMDYWGQGTSVTVSS
VL: DIVLTQSPASLAVSLGQRATISCRASESVSIHGSHLMHWYQQKPGQPPRLLIYAASNLESGVPARFSGSGSETDFTLNIHPVEEEDAATYFCQQGIKDPYTFGGGTKLEIK
notes: human-murine chimeric antibody, human IgG1
EC50 [1]: 2.49 nM | Maximum mean fluorescence intensity [1]: 49900 | Proportion of chimeric antibody positive cells to B cells (%) at 1 nM [2]: 6% | Proportion of chimeric antibody positive cells to B cells (%) at 10 nM [2]: 15% | Proportion of chimeric antibody positive cells to B cells (%) at 100 nM [2]: 23% | EC50 [3]: 6.11 nM | Maximum mean fluorescence intensity [3]: 80000 | EC50 (human CD19 on Raji cells): 1.47 nM | Maximum mean fluorescence intensity (human CD19 on Raji cells): 24800

B4: F3.40.14 (antibody, human IgG1, V domains shown)
VH: B3 VH with N61S, K74T, Y101S, T112A
VL: B3 VL with S34T, K97D
notes: as for B3
EC50 [1]: 6 nM | Maximum mean fluorescence intensity [1]: 49100 | Proportion of chimeric antibody positive cells to B cells (%) at 1 nM [2]: 1% | Proportion of chimeric antibody positive cells to B cells (%) at 10 nM [2]: 1% | Proportion of chimeric antibody positive cells to B cells (%) at 100 nM [2]: 5% | Maximum mean fluorescence intensity [3]: 281 | EC50 (human CD19 on Raji cells): 2.59 nM | Maximum mean fluorescence intensity (human CD19 on Raji cells): 27000

Binders with a lower EC50 [1], results first:

EC50 [1]: 1.9 nM | Maximum mean fluorescence intensity [1]: 48300 | Proportion of chimeric antibody positive cells to B cells (%) at 1 nM [2]: 38% | Proportion of chimeric antibody positive cells to B cells (%) at 10 nM [2]: 91% | Proportion of chimeric antibody positive cells to B cells (%) at 100 nM [2]: 99% | EC50 [3]: 2.08 nM | Maximum mean fluorescence intensity [3]: 173000 | EC50 (human CD19 on Raji cells): 2.9 nM | Maximum mean fluorescence intensity (human CD19 on Raji cells): 29700
B5: F3.3.10 (antibody, human IgG1, V domains shown)
VH: DVQLQESGPGLAKLSQSLSLTCSVTGYSITSGYYWNWIRQFPGNKLEWMGHISYDGNNNYNPSLKNRISITRDTSKNQFFLKLNSVTTEDTATYYCARENYSNYYFDYWGQGTTLTVSS
VL: DIVLTQSPASLAVSLGQRATISCRASQSVSKSSYTYIHWYQQKPGQPPKLLIKYASILQSGVPARFSGSGSGTDFTLNFHPVEEEDTATYYCQHSWEIPYTFGGGTKLEIK
notes: as for B3

EC50 [1]: 0.71 nM | Maximum mean fluorescence intensity [1]: 60400 | Proportion of chimeric antibody positive cells to B cells (%) at 1 nM [2]: 2% | Proportion of chimeric antibody positive cells to B cells (%) at 10 nM [2]: 6% | Proportion of chimeric antibody positive cells to B cells (%) at 100 nM [2]: 22% | EC50 [3]: 16.7 nM | Maximum mean fluorescence intensity [3]: 28700 | EC50 (human CD19 on Raji cells): 0.53 nM | Maximum mean fluorescence intensity (human CD19 on Raji cells): 29200
B2: F2.15.26 (antibody, human IgG1, V domains shown)
VH: QVQLKESGPGLVAPSQSLSITCTVSGFSLTDYGVSWIRQSPGKGLEWLGVIWGSGDTYYNSVLESRLSINKDNSKNQVFLKMNSLQTDDAAMYFCAKHSYYGGSFAMDYWGQGTSVTVSS
VL: DIQMTQTTSSLSASLGDRVTISCRASQDISNYLNWYQQKPDGTVKLLIYYTSRLHSGVPSRFSGSGSGTDYSLTISNLEQEDIATYFCQQGKTLPWTFGGGTKLEIK
notes: as for B3

EC50 [1]: 0.69 nM | Maximum mean fluorescence intensity [1]: 66900 | Proportion of chimeric antibody positive cells to B cells (%) at 1 nM [2]: 15% | Proportion of chimeric antibody positive cells to B cells (%) at 10 nM [2]: 32% | Proportion of chimeric antibody positive cells to B cells (%) at 100 nM [2]: 59% | EC50 [3]: 1.76 nM | Maximum mean fluorescence intensity [3]: 75000 | EC50 (human CD19 on Raji cells): 0.57 nM | Maximum mean fluorescence intensity (human CD19 on Raji cells): 33100
B1: F1-mab003 (antibody, human IgG1, V domains shown)
VH: EVQLQQSGPELVKPGASVKMSCKASGYTFTDYVMHWVRQTPGQGLEWIGYFNPYNDGTNYNEKFKVKATLTSDKSSTTAYMELSSLTSEDSAVYYCARGVYYYGRDFDYWGQGTTLTVSS
VL: DVVLTQTPLSLPVSLGDQASISCRSSQSLENSNGNSYLNWYLQKPGQSPQLLIYRVSNRFSGVLDRFSGSGSGTDFTLKISRVEAEDLGVYFCLQITHVPWTFGGGTKLEIK
notes: as for B3
